We go through four proteins from publication PMC7234994, “Structural insights into the inhibition mechanism of human sterol O-acyltransferase 1 by a competitive inhibitor” (Nature Communications, 2020).

Series [1] deals with the molecule itself. Description: SEC; fluorescence-detection SEC (FSEC) of N-terminal GFP-tagged hSOAT1 solubilized in detergent micelles; elution compared with dimeric mouse TPC1 (189 kDa).
Series [2] concerns the molecule itself. Description: cryo-EM structure; hSOAT1 66-550 in nanodisc (MSP2X) with inhibitor CI-976; 3.5 Å, C2 symmetry.
Series [3] deals with the molecule itself. Description: cryo-EM structure; hSOAT1 full length in detergent micelles with CI-976; one 3D class refined to 12 Å.

B1: N-terminal GFP-tagged N-terminal truncated human SOAT1 (66-550) (domain or fragment, UniProt P35610 66-550, looked up)
chain: MKEVGSHFDDFVTNLIEKSASLDNGGCALTTFSVLEGEKNNHRAKDLRAPPEQGKIFIARRSLLDELLEVDHIRTIYHMFIALLILFILSTLVVDYIDEGRLVLEFSLLSYAFGKFPTVVWTWWIMFLSTFSVPYFLFQHWATGYSKSSHPLIRSLFHGFLFMIFQIGVLGFGPTYVVLAYTLPPASRFIIIFEQIRFVMKAHSFVRENVPRVLNSAKEKSSTVPIPTVNQYLYFLFAPTLIYRDSYPRNPTVRWGYVAMKFAQVFGCFFYVYYIFERLCAPLFRNIKQEPFSARVLVLCVFNSILPGVLILFLTFFAFLHCWLNAFAEMLRFGDRMFYKDWWNSTSYSNYYRTWNVVVHDWLYYYAYKDFLWFFSKRFKSAAMLAVFAVSAVVHEYALAVCLSFFYPVLFVLFMFFGMAFNFIVNDSRKKPIWNVLMWTSLFLGNGVLLCFYSQEWYARQHCPLKNPTFLDYVRPRSWTCRYVF
notes: human sterol O-acyltransferase 1 (SOAT1), residues 66-550 (N-terminal tetramerization domain deleted); also called hSOAT1 dimer; SOAT1-dimer (66-550); source: HEK293F, transfected, solubilized with 1% GDN (supernatant, not purified); not shown: GFP, N-terminal, kept
For the protein B1, the “stoichiometry N” value in series [1] was found to be 2.

B2: human SOAT1 dimer construct (66-550), purified, tags removed (domain or fragment, UniProt P35610 66-550, looked up)
chain: MKEVGSHFDDFVTNLIEKSASLDNGGCALTTFSVLEGEKNNHRAKDLRAPPEQGKIFIARRSLLDELLEVDHIRTIYHMFIALLILFILSTLVVDYIDEGRLVLEFSLLSYAFGKFPTVVWTWWIMFLSTFSVPYFLFQHWATGYSKSSHPLIRSLFHGFLFMIFQIGVLGFGPTYVVLAYTLPPASRFIIIFEQIRFVMKAHSFVRENVPRVLNSAKEKSSTVPIPTVNQYLYFLFAPTLIYRDSYPRNPTVRWGYVAMKFAQVFGCFFYVYYIFERLCAPLFRNIKQEPFSARVLVLCVFNSILPGVLILFLTFFAFLHCWLNAFAEMLRFGDRMFYKDWWNSTSYSNYYRTWNVVVHDWLYYYAYKDFLWFFSKRFKSAAMLAVFAVSAVVHEYALAVCLSFFYPVLFVLFMFFGMAFNFIVNDSRKKPIWNVLMWTSLFLGNGVLLCFYSQEWYARQHCPLKNPTFLDYVRPRSWTCRYVF
notes: human sterol O-acyltransferase 1 (SOAT1), residues 66-550; residues 66-117 invisible in the map; Reconstituted into MSP2X nanodiscs; also called hSOAT1 dimer; hSOAT1 66-550; source: HEK293F, BacMam infected, purified (strep-tactin, PreScission, superose-6); not shown: His7, N-terminal, cleaved; strep, N-terminal, cleaved; GFP, N-terminal, cleaved
Turning to B2, in series [2], the “stoichiometry N” value is 2.

B3: N-terminal GFP-tagged full-length human SOAT1 (1-550) (enzyme, UniProt P35610 1-550, looked up)
chain: MVGEEKMSLRNRLSKSRENPEEDEDQRNPAKESLETPSNGRIDIKQLIAKKIKLTAEAEELKPFFMKEVGSHFDDFVTNLIEKSASLDNGGCALTTFSVLEGEKNNHRAKDLRAPPEQGKIFIARRSLLDELLEVDHIRTIYHMFIALLILFILSTLVVDYIDEGRLVLEFSLLSYAFGKFPTVVWTWWIMFLSTFSVPYFLFQHWATGYSKSSHPLIRSLFHGFLFMIFQIGVLGFGPTYVVLAYTLPPASRFIIIFEQIRFVMKAHSFVRENVPRVLNSAKEKSSTVPIPTVNQYLYFLFAPTLIYRDSYPRNPTVRWGYVAMKFAQVFGCFFYVYYIFERLCAPLFRNIKQEPFSARVLVLCVFNSILPGVLILFLTFFAFLHCWLNAFAEMLRFGDRMFYKDWWNSTSYSNYYRTWNVVVHDWLYYYAYKDFLWFFSKRFKSAAMLAVFAVSAVVHEYALAVCLSFFYPVLFVLFMFFGMAFNFIVNDSRKKPIWNVLMWTSLFLGNGVLLCFYSQEWYARQHCPLKNPTFLDYVRPRSWTCRYVF
notes: human sterol O-acyltransferase 1 (SOAT1), full-length, residues 1-550; BacMam vector with N-terminal His7-strep-GFP tags; detected by GFP fluorescence in FSEC; also called hSOAT1; sterol O-acyltransferase 1; source: solubilized in detergent micelles; not shown: GFP, N-terminal, kept
Take B3: the “stoichiometry N” value in series [1] worked out at 4.

B4: human SOAT1 full-length (1-550), purified, tags removed (enzyme, UniProt P35610 1-550, looked up)
chain: MVGEEKMSLRNRLSKSRENPEEDEDQRNPAKESLETPSNGRIDIKQLIAKKIKLTAEAEELKPFFMKEVGSHFDDFVTNLIEKSASLDNGGCALTTFSVLEGEKNNHRAKDLRAPPEQGKIFIARRSLLDELLEVDHIRTIYHMFIALLILFILSTLVVDYIDEGRLVLEFSLLSYAFGKFPTVVWTWWIMFLSTFSVPYFLFQHWATGYSKSSHPLIRSLFHGFLFMIFQIGVLGFGPTYVVLAYTLPPASRFIIIFEQIRFVMKAHSFVRENVPRVLNSAKEKSSTVPIPTVNQYLYFLFAPTLIYRDSYPRNPTVRWGYVAMKFAQVFGCFFYVYYIFERLCAPLFRNIKQEPFSARVLVLCVFNSILPGVLILFLTFFAFLHCWLNAFAEMLRFGDRMFYKDWWNSTSYSNYYRTWNVVVHDWLYYYAYKDFLWFFSKRFKSAAMLAVFAVSAVVHEYALAVCLSFFYPVLFVLFMFFGMAFNFIVNDSRKKPIWNVLMWTSLFLGNGVLLCFYSQEWYARQHCPLKNPTFLDYVRPRSWTCRYVF
notes: human sterol O-acyltransferase 1 (SOAT1), full-length, residues 1-550; Studied in digitonin/GDN micelles and in MSP2N2 nanodiscs with soybean polar lipids; also called hSOAT1; hSOAT1 tetramer; source: HEK293F, BacMam infected, purified (strep-tactin, PreScission, superose-6); not shown: His7, N-terminal, cleaved; strep, N-terminal, cleaved; GFP, N-terminal, cleaved
On to B4, for which the “stoichiometry N” value in series [3] worked out at 4.

The stoichiometry N is a count of units in the complex or per binding partner.
